Experimental data published in the supplement of paper PMC10724198.
± gives the standard deviation of the averaged measurements.

Tested on: Saccharomyces cerevisiae
Assay: protein stability index of tFT-peptide fusion (C-terminal peptide) (PSI (0-1 scale)); higher = more stable (slower turnover)
Settings: genetic background: wild type; temperature: 30 C
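Further: PSI is a weighted mean of sequencing reads over stability bins, variants kept only with over 10 reads, mCherry proximal and sfGFP distal, peptide attached via GGGS linker.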

Sequence | protein stability index
PPPHPPRRLLPP | 0.69 ± 0.065
PPPHPRPSPPSP | 0.702 ± 0.048
PPPHRPWSPVPP | 0.7158 ± 0.0034
PPPISTLSSSPS | 0.582 ± 0.059
PPPKAPHSSPNL | 0.675 ± 0.072
PPPLASRLLSFL | 0.713 ± 0.022
PPPLHPRYDPPA | 0.685 ± 0.025
PPPLLAPHPPPP | 0.697 ± 0.01
PPPLLPFPPIPR | 0.697 ± 0.033
PPPLPFPPSPPL | 0.681 ± 0.063
PPPLPLSTPPPL | 0.671 ± 0.014
PPPLPPPPPLPP | 0.589 ± 0.038
PPPLPPPPPPSP | 0.782 ± 0.083
PPPLPPSSPTYS | 0.646 ± 0.11
PPPLPRRPASPL | 0.652 ± 0.014
PPPLPSPPAFRP | 0.635 ± 0.045
PPPLPTPSLPPP | 0.70185 ± 0.00011
PPPLPYKAPRIL | 0.7068 ± 0.0036
PPPLRAPPLSLP | 0.62 ± 0.0068
PPPPAPYRPPSC | 0.682 ± 0.0054
PPPPATRPSPCY | 0.706 ± 0.048

Sequence | protein stability index
PPPPDHPRSSPV | 0.688 ± 0.037
PPPPDPWTSPRP | 0.734 ± 0.027
PPPPFSPPPPSA | 0.7 ± 0.04
PPPPLLSPPSPP | 0.714 ± 0.015
PPPPLPPIRPYP | 0.719 ± 0.016
PPPPLPPQPPPP | 0.654 ± 0.0073
PPPPLPPTPPPL | 0.673 ± 0.025
PPPPPAPPPQPS | 0.699 ± 0.011
PPPPPFSPLFLP | 0.698 ± 0.12
PPPPPHSSPFRS | 0.694 ± 0.01
PPPPPHTPPPYP | 0.766 ± 0.05
PPPPPIPPPLVP | 0.658 ± 0.012
PPPPPLPPLPTP | 0.693 ± 0.022
PPPPPLPPPSPP | 0.598 ± 0.036
PPPPPLRVPPPP | 0.6753 ± 0.004
PPPPPPAFPPST | 0.716 ± 0.027
PPPPPPLITPPL | 0.666 ± 0.052
PPPPPPLLPSPL | 0.705 ± 0.069
PPPPPPLPPPLP | 0.704 ± 0.056
PPPPPPLPPSPL | 0.634 ± 0.1
PPPPPPPASLLP | 0.755 ± 0.056

Sequence | protein stability index
PPPPPPPFRPPT | 0.651 ± 0.017
PPPPPPPLPLPP | 0.64 ± 0.011
PPPPPPPLPRSP | 0.721 ± 0.039
PPPPPPPPAPFP | 0.687 ± 0.056
PPPPPPPPPLPR | 0.657 ± 0.039
PPPPPPPPPQPS | 0.67 ± 0.08
PPPPPPPPSPSP | 0.742 ± 0.074
PPPPPPPTPIHP | 0.72 ± 0.01
PPPPPPRPFPPP | 0.66 ± 0.085
PPPPPPSVLSPP | 0.722 ± 0.061
PPPPPPTPPPCL | 0.694 ± 0.057
PPPPPRFSPHPP | 0.695 ± 0.013
PPPPPRLPPRPP | 0.6152 ± 0.0052
PPPPPRPPLSPP | 0.725 ± 0.03
PPPPPSLACPPP | 0.688 ± 0.037
PPPPPSPPLSPI | 0.728 ± 0.063
PPPPRAISPLLP | 0.666 ± 0.031
PPPPRPLKLFPP | 0.588 ± 0.014
PPPPRPLPPAPP | 0.63 ± 0.075
PPPPRPPHLSPP | 0.7006 ± 0.0067
PPPPRPPRPYSV | 0.767 ± 0.27

Sequence | protein stability index
PPPPRPSPSIYP | 0.732 ± 0.018
PPPPRRPPPAPF | 0.6935 ± 0.0022
PPPPRSLPLLPP | 0.67 ± 0.073
PPPPSPRLSHSP | 0.646 ± 0.018
PPPPYPPHPPSA | 0.712 ± 0.027
PPPQDPTRRRRP | 0.7116 ± 0.0054
PPPQPPPRHSPP | 0.676 ± 0.031
PPPQSFLPRPPH | 0.713 ± 0.0062
PPPRLPTSPDSP | 0.722 ± 0.061
PPPRLSPTPSSR | 0.721 ± 0.05
PPPRLTVPIPSS | 0.6477 ± 0.0054
PPPRPDLTVGQP | 0.654 ± 0.04
PPPRPLSPPFPF | 0.641 ± 0.05
PPPRPPASLPSL | 0.5833 ± 0.0033
PPPRPPPFPLSC | 0.7134 ± 0.0065
PPPRPPSPPSFL | 0.734 ± 0.041
PPPRRAPLSPSV | 0.669 ± 0.042
PPPRSPLLPSPL | 0.687 ± 0.019
